The record followed here is patent US20030008291A1 (RIKEN, published 2003).

The term Kd denotes the free concentration of one partner at which half of the binding sites on the other are occupied at equilibrium, for simple one-to-one binding. Usually koff stands for a measure of how fast the partners let go of each other. Higher therefore signals fast dissociation. Usually kon stands for the second-order rate constant of association. Low readings indicate slow association, high ones fast association.

Experiment [1] has as its target T1, UvrA.
T1 construct: UvrA was the analyte in the BIAcore experiment
Nature of the experiment: SPR (BIAcore), His-tagged β domain immobilised on Ni-NTA sensor chip, UvrA injected, without ATP (- ATP).

Experiment [2] addresses T1, UvrA. Nature of the experiment: SPR (BIAcore), His-tagged β domain immobilised on Ni-NTA sensor chip, UvrA injected, with ATP (+ ATP). Background: Surface plasmon resonance follows binding to a sensor surface in real time, without labels.

B1: UvrB-β (enzyme)
chain: RNLVVERGKPYPREVLLERLLELGYQRNDIDLSPGRFRAKGEVLEIFPAYETEPIRVELFGDEVERISQVHPVTGERLRELPGFVLFPA
As for B1, in experiment [1], binding was put at a Kd of 2600 nM, the koff is 0.52 s⁻¹ and the kon stood at 200000 M⁻¹ s⁻¹. In experiment [2], this molecule had a Kd of 400 nM, a koff of 0.06 s⁻¹ and a kon of 150000 M⁻¹ s⁻¹.
